Laboratory results reported in US20170342155A1 (Amgen, published 2017).

T1: human CCR7 variant H127Y (20100135009) (human, UniProt P32248 25-378)
T1 sequence: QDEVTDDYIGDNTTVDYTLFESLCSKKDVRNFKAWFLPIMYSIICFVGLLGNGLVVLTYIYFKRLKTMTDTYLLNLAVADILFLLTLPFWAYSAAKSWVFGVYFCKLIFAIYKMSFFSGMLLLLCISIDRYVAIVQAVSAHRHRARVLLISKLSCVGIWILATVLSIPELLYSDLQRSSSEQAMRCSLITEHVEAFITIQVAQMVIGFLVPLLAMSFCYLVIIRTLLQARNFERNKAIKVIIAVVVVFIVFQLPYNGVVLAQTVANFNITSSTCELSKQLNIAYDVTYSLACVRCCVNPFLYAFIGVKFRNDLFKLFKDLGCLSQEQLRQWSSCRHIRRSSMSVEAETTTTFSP

T2: human CCR7 variant F128L (20100126472) (human, UniProt P32248 25-378)
T2 sequence: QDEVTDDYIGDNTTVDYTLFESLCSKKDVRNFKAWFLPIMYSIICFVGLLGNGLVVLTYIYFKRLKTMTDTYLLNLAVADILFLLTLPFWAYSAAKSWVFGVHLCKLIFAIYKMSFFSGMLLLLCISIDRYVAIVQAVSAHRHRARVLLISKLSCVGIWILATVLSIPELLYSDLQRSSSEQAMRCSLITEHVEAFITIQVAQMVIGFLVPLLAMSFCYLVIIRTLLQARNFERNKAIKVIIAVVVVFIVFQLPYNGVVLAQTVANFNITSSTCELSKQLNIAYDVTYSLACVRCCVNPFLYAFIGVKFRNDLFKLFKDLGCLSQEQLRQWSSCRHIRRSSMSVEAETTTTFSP

T3: human CCR7 variant A118E (20100130760) (human, UniProt P32248 25-378)
T3 sequence: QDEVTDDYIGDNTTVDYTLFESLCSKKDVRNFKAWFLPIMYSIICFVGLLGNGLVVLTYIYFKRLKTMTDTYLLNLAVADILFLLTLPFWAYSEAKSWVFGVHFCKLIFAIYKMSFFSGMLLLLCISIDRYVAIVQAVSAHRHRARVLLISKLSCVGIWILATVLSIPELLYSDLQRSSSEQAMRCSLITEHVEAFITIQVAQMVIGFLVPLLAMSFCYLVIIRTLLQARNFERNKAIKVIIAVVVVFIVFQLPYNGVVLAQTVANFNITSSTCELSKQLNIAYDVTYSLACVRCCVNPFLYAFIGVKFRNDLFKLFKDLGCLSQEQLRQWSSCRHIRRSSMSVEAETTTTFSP

T4: human CCR7 variant S204G (20100171269) (human, UniProt P32248 25-378)
T4 sequence: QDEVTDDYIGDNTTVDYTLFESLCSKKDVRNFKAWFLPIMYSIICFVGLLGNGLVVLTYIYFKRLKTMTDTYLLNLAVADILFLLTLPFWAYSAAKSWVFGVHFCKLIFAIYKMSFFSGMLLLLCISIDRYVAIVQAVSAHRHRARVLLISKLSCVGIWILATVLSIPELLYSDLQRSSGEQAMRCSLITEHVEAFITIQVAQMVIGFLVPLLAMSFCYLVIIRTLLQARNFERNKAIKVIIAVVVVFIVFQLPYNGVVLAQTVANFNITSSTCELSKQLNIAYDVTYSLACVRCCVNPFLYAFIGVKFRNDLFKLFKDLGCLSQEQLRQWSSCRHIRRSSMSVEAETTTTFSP

T5: human CCR7 variant T297S (20110018203) (human, UniProt P32248 25-378)
T5 sequence: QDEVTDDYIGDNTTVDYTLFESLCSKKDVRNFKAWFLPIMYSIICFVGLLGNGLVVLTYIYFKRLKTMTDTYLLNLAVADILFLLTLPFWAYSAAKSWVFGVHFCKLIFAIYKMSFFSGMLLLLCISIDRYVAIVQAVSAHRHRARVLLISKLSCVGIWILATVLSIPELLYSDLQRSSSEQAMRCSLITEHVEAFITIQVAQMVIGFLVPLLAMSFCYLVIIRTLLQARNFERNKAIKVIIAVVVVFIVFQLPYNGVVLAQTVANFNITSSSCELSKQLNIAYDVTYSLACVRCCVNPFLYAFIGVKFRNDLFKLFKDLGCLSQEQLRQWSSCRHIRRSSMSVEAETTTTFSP

T6: human CCR7 variant A207T (20100171270) (human, UniProt P32248 25-378)
T6 sequence: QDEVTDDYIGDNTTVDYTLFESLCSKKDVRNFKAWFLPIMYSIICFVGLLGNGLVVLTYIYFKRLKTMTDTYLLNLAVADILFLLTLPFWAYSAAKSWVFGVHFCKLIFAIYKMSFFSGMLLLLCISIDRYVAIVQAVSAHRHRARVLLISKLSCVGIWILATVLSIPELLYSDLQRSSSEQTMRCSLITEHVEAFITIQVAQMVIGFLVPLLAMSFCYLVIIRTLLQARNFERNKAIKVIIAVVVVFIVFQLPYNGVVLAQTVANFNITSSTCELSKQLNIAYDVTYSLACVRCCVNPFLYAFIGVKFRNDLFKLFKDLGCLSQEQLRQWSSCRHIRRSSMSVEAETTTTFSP

T7: human CCR7 variant F44Y (20100128285) (human, UniProt P32248 25-378)
T7 sequence: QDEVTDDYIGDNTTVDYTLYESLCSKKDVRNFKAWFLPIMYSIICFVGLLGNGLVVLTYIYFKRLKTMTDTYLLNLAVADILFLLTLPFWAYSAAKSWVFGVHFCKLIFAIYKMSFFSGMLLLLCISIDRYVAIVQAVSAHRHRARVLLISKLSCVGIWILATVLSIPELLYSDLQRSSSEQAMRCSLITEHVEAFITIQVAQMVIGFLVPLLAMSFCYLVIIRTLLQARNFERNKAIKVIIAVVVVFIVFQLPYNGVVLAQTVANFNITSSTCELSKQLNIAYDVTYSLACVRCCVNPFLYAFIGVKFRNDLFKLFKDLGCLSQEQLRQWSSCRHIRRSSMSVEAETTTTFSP


Columns and labels:
Experiment in all cases: flow cytometry on transfected 293T cells, PE secondary antibody, geo mean
[1] = target: T1, human CCR7 variant H127Y (20100135009)
[2] = target: T2, human CCR7 variant F128L (20100126472)
[3] = target: T3, human CCR7 variant A118E (20100130760)
[4] = target: T4, human CCR7 variant S204G (20100171269)
[5] = target: T5, human CCR7 variant T297S (20110018203)
[6] = target: T6, human CCR7 variant A207T (20100171270)
[7] = target: T7, human CCR7 variant F44Y (20100128285)

binding result [1]	binding result [2]	binding result [3]	binding result [4]	binding result [5]	binding result [6]	binding result [7]	Binder
binds	binds	binds	binds	binds	binds	binds	antibody 6B4.1 (antibody, V domains shown, Human antibody from XenoMouse hybridoma; Light = 2 and heavy = 42 is inferred from the order of the listing (light chains first)) VH: QVQLVESGGGVVQPGRSLRLSCAASGFTFSSYGMHWVRQAPGKGLEWVAVIWYDGSKKYYADSVKGRFTISRDNSKNTLYLQMNRLRAEDTAVYYCARDGGIAVFLQDNWFDPWGQGTLVTVSS VL: SYELTQPPSVSVSPGQRARITCSGDKLGDKYASWYQQKPGQSPLLVIYQDSKRPSGIPERFSGSNSGNTATLTISGTQAMDEADYYCQAWGSSTVIFGGGTKLTVLG
binds	binds	binds	binds	binds	binds	binds	antibody 6B5.1 (antibody, human IgG2, lambda, V domains shown, Human antibody from XenoMouse hybridoma; Light = 18 and heavy = 50 is inferred from the order of the listing) VH: QVQLVESGGGVVQPGRSLRLSCAASGFTFRSYGMHWVRQAPGKGLEWVAVIWYDGSKKYYADSVKGRFTISRDNSKNTLYLQMNRLRAEDTAVYYCARDGGIAVFLEDNWFDPWGQGTLVTVSS VL: SYELTQPPSVSVSPGQRASITCSGDKLGDKYASWYQQKPGQSPLLVIYQDGKRPSGIPERFSGSNSGNTATLTISGTQAMDEADYYCQAWGSSTVIFGGGTKLTVLG
